Experiment [1] has as its target T1, HER2 on stably transfected HEK293 cells (UniProt P04626 23-1255, limits assumed).
T1 construct: whole, on cells
Briefly: FACS on HEK293 cells stably expressing HER2, PE goat anti-human IgG Fc gamma detection.

Experiment [2] has as its target T2, human Fibroblast Activation Protein (FAP) ectodomain with C-terminal poly-lysine and 6xHis-tag (human, UniProt Q12884 27-760).
T2 construct: Recombinant soluble antigen used in selections, ELISA and SPR; also called hu FAP; human FAP
Description: SPR (Biacore T100), His-tagged FAP captured by anti-His antibody, IgG as analyte (avidity). In general terms: SPR reads the build-up and loss of mass on a sensor chip optically.
Description: (§1) For immobilization carboxymethylated dextran biosensor chips (CMS, GE Healthcare) were activated with N-ethyl-N′-(3-dimethylaminopropyl)-carbodiimide hydrochloride (EDC) and N-hydroxysuccinimide (NHS) according to the supplier's instructions. The Penta His antibody was diluted with 10 mM sodium acetate, pH 5, to 40 μg/ml before injection at a flow rate of 10 μl/minute to achieve approximately 9000 response units (RU) of coupled protein. Following the injection of the ligand, 1 M ethanolamine was injected to block unreacted groups.
(§2) For kinetics measurements, human, mouse or Cynomolgus FAP extracellular domain was injected at 10 μl/min at 10 nM for 20 s (for Fab fragments) or at 20 nM for 25 s (for IgG) and was captured via its His tag by the immobilized penta His antibody. […] The following parameters were applied: Association time 180 s, dissociation 300 s (for Fab) or 900 s (for IgG), regeneration with 10 mM glycine pH 2 for 60 s between each cycle. Association rates (kₒₙ) and dissociation rates (koff) were calculated using a simple one-to-one Langmuir binding model (BIACORE® T100 Evaluation Software version 1.1.1) by simultaneously fitting the association and dissociation sensorgrams (model parameters were local Rmax and RI=0). The equilibrium dissociation constant (KD) was calculated as the ratio koff/kₒₙ.

In experiment [3] the target is T3, murine Fibroblast Activation Protein (FAP) ectodomain with C-terminal poly-lysine and 6xHis-tag (mouse, UniProt P97321 27-761).
T3 construct: also called mu FAP; murine FAP
Described as above.
Description: as §1, §2

The target of experiment [4] is T4, Cynomolgus Fibroblast Activation Protein (FAP) ectodomain with C-terminal poly-lysine and 6xHis-tag (cynomolgus monkey, UniProt Q12884 27-760 (human entry)).
T4 construct: also called cyno FAP; Cynomolgus FAP extracellular domain
The description is as above.
Description: as §1, §2

Experiment [5] concerns the target T5, human Fibroblast Activation Protein (FAP) on cells or in tissue (human, UniProt Q12884 1-760).
T5 construct: whole, on cells; Expressed on stably transfected HEK293 cells, on the human fibroblast cell line GM05389, on human tumor cell lines and in human tumor tissue sections; also called human FAP; hFAP
Description: FACS on HEK293 cells stably transfected with human FAP.

Experiment [6] concerns the target T6, DPPIV (CD26) on stably transfected HEK293 cells (UniProt P27487 1-766).
T6 construct: whole, on cells; also called dipeptidyl peptidase IV
Briefly: FACS on HEK293 cells stably expressing DPPIV, PE goat anti-human IgG Fc gamma detection.

The target in experiment [7] is T7, murine Fibroblast Activation Protein (FAP) on stably transfected HEK293 cells (mouse, UniProt P97321 1-761).
T7 construct: whole, on cells; also called murine FAP
Description: FACS on HEK293 cells stably transfected with murine FAP.

Experiment [8] deals with T2, human Fibroblast Activation Protein …. Briefly: SPR (Biacore T100), His-tagged FAP captured by anti-His antibody, Fab as analyte.
Description: as §1, §2
Experiment [9] has as its target T3, murine Fibroblast Activation Protein …. The description is as above.
Description: as §1, §2
The target of experiment [10] is T4, Cynomolgus Fibroblast Activation …. The experiment is described as above.
Description: as §1, §2

Results on five molecules are retold here after patent publication US20160060356A1 (Hoffmann-La Roche, published 2016).

Where only a bound is given, the exact number is not on record here.

B1: 4G8 human IgG1 antibody (antibody, V domains shown)
VH: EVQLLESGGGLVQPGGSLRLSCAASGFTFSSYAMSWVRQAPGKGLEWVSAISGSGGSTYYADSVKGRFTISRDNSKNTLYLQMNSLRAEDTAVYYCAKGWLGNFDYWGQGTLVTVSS
VL: EIVLTQSPGTLSLSPGERATLSCRASQSVSRSYLAWYQQKPGQAPRLLIIGASTRATGIPDRFSGSGSGTDFTLTISRLEPEDFAVYYCQQGQVIPPTFGQGTKVEIK
notes: Wild-type and glycoengineered versions were used in the ADCC assay; also called IgG 4G8; 4G8 IgG
Take B1: the binding result in experiment [1] and in experiment [6] was “no binding (tested: 30 µg/ml)” in each case. The Kd in experiment [2] came out at 0.051 nM; in experiment [3] it was 0.001 nM; in experiment [4], 0.059 nM. Moreover, the EC50 (commonly the concentration that produces a half-maximal response) stood at 5 nM in [5] and 1.7 nM in experiment [7].

B2: 3F2 Fab fragment (Fab, V domains shown)
VH: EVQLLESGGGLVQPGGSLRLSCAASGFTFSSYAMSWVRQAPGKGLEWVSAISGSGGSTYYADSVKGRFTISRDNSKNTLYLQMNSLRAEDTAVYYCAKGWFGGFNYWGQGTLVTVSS
VL: EIVLTQSPGTLSLSPGERATLSCRASQSVTSSYLAWYQQKPGQAPRLLINVGSRRATGIPDRFSGSGSGTDFTLTISRLEPEDFAVYYCQQGIMLPPTFGQGTKVEIK
notes: also called Fab fragment 3F2; clone 3F2
As for B2, the Kd was 13 nM in experiment [8], 14 nM in experiment [9] and 11 nM in experiment [10].

B3: 3F2 human IgG1 antibody (antibody, V domains shown)
VH: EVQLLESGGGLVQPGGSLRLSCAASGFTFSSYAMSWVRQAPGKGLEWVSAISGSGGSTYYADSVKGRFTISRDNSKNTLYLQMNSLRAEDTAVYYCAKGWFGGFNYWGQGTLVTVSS
VL: EIVLTQSPGTLSLSPGERATLSCRASQSVTSSYLAWYQQKPGQAPRLLINVGSRRATGIPDRFSGSGSGTDFTLTISRLEPEDFAVYYCQQGIMLPPTFGQGTKVEIK
notes: Wild-type and glycoengineered versions were used in the ADCC assay; also called IgG 3F2; 3F2 IgG
For the molecule B3, the binding result in [1] and in experiment [6] was “no binding (tested: 30 µg/ml)” in each case. The Kd worked out at 0.039 nM in [2], 0.029 nM in experiment [3] and 0.042 nM in [4]. Further, the values for the EC50 in [5] and in experiment [7] were 4.8 nM and 1 nM, respectively.

B4: 4B3 human IgG1 antibody (antibody, V domains shown)
VH: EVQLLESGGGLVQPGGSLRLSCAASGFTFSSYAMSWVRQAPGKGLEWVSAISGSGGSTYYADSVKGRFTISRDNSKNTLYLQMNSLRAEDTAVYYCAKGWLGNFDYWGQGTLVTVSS
VL: EIVLTQSPGTLSLSPGERATLSCRASQSVSSNYLAWYQQKPGQAPRLLIYGAYIRATGIPDRFSGSGSGTDFTLTISRLEPEDFAVYYCQQGQVIPPTFGQGTKVEIK
notes: Human IgG1 format; also called 4B3 IgG
As for B4, the binding result in [1] and in experiment [6] was “no binding (tested: 30 µg/ml)” throughout. In addition, the figures for the EC50 in experiment [5] and in experiment [7] were 5.5 nM and 1.6 nM, respectively.

B5: 4G8 Fab fragment (Fab, V domains shown)
VH: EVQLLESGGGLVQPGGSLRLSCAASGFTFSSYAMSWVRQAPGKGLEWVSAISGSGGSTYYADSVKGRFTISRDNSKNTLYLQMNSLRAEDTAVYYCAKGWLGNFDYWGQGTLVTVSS
VL: EIVLTQSPGTLSLSPGERATLSCRASQSVSRSYLAWYQQKPGQAPRLLIIGASTRATGIPDRFSGSGSGTDFTLTISRLEPEDFAVYYCQQGQVIPPTFGQGTKVEIK
notes: also called Fab fragment 4G8; clone 4G8
In the case of B5, the Kd was 74 nM in experiment [8], at most 7 nM in [9] and 56 nM in [10].
